Assay results as given in the supplement of paper PMC10724198.
± gives the standard deviation of the averaged measurements.

System: Saccharomyces cerevisiae
Experiment: protein stability index of tFT-peptide fusion (C-terminal peptide) (PSI (0-1 scale)); higher = more stable (slower turnover)
Details: genetic background: wild type; temperature: 30 C
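Also: PSI is a weighted mean of sequencing reads over stability bins, variants kept only with over 10 reads, mCherry proximal and sfGFP distal, peptide attached via GGGS linker.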

Row | Sequence | protein stability index
1 | SFYSSPTVPFLP | 0.717 ± 0.044
2 | SGAGGGVWWGGV | 0.73 ± 0.0092
3 | SGAGRRMGGARE | 0.657 ± 0.051
4 | SGAIDRSAYIDG | 0.622 ± 0.028
5 | SGCGVRFLLCRL | 0.801 ± 0.065
6 | SGCIYLLQTPME | 0.636 ± 0.012
7 | SGCSWRGSPVKE | 0.636 ± 0.0076
8 | SGGGCVYRGGRG | 0.633 ± 0.015
9 | SGHELLGSVFRR | 0.681 ± 0.076
10 | SGIILEKGGGGN | 0.679 ± 0.026
11 | SGLGRLRSGRVL | 0.698 ± 0.012
12 | SGLRHLLPSGHN | 0.711 ± 0.041
13 | SGLRLQLLVGHT | 0.632 ± 0.013
14 | SGNALSGVIRNC | 0.783 ± 0.045
15 | SGPGGWNREVGR | 0.6841 ± 0.0024
16 | SGPHIAFYTSCP | 0.73 ± 0.053
17 | SGRAGAPSVIRR | 0.694 ± 0.053
18 | SGRDWYHSLGGA | 0.742 ± 0.052
19 | SGRGLPLGGAFD | 0.727 ± 0.026
20 | SGRSQHFVSFLR | 0.664 ± 0.018
21 | SGRSSQNHRCWI | 0.684 ± 0.012
22 | SGSGGGGMRLGS | 0.701 ± 0.026
23 | SGSGLRIIRSSP | 0.657 ± 0.011

Row | Sequence | protein stability index
24 | SGSIRHSSPLPT | 0.75 ± 0.12
25 | SGTRIQFRLGMS | 0.723 ± 0.064
26 | SGVAAGLVAGSL | 0.673 ± 0.12
27 | SGVIRLRAVELF | 0.5726 ± 0.0017
28 | SGVKKGRSEGKR | 0.629 ± 0.051
29 | SGVSICLSGMGK | 0.611 ± 0.017
30 | SGWASVCARAAI | 0.745 ± 0.06
31 | SGWRYPFGCGAS | 0.763 ± 0.1
32 | SGYWWIYMSELS | 0.666 ± 0.019
33 | SHILPCTCPLAA | 0.574 ± 0.044
34 | SHLPPPSRFSSD | 0.677 ± 0.077
35 | SHPPPTLLSYLP | 0.746 ± 0.0079
36 | SHPRHSHLPFSP | 0.725 ± 0.079
37 | SHRTHPAAPHAP | 0.738 ± 0.056
38 | SHSRRSNMTLFV | 0.721 ± 0.073
39 | SHTNVILQDVTI | 0.655 ± 0.087
40 | SIDPAEFSSTLP | 0.7125 ± 0.0029
41 | SIEEKRNKIDKI | 0.769 ± 0.2
42 | SIENEYAMERKK | 0.707 ± 0.056
43 | SIKDKFIVITLK | 0.629 ± 0.11
44 | SIKKQLQKKKQK | 0.743 ± 0.1
45 | SIKNTQRFKIRN | 0.663 ± 0.034
46 | SIRGNGCVVCGT | 0.708 ± 0.093

Row | Sequence | protein stability index
47 | SISPWFFFFLDW | 0.579 ± 0.014
48 | SISSFLSLLFFR | 0.639 ± 0.062
49 | SIVRRVRDRIGR | 0.641 ± 0.038
50 | SIWLPPSRPPPS | 0.766 ± 0.015
51 | SKGISARLAREG | 0.653 ± 0.038
52 | SKKHIKKKQKRK | 0.687 ± 0.053
53 | SKKKKRRKEQEK | 0.745 ± 0.03
54 | SKLTRHVDLHGS | 0.6898 ± 0.0017
55 | SKLTSRPLSKVP | 0.718 ± 0.048
56 | SKQGNKADGCAK | 0.603 ± 0.054
57 | SKRQKKENLKET | 0.633 ± 0.044
58 | SKRRLTGYRKTK | 0.669 ± 0.052
59 | SKSDRNMQTIHY | 0.605 ± 0.067
60 | SKYKITIYWREE | 0.568 ± 0.0096
61 | SLAAPFPSLPNF | 0.652 ± 0.036
62 | SLAASPPSPLLP | 0.63 ± 0.09
63 | SLAFSVFWSIFL | 0.585 ± 0.015
64 | SLALASTLRLPP | 0.69 ± 0.047
65 | SLASHVLSRPTL | 0.7 ± 0.047
66 | SLCRQHSVFSLA | 0.653 ± 0.044
67 | SLDILVSVDGRL | 0.6546 ± 0.001
68 | SLERWNPGGSGV | 0.656 ± 0.025
69 | SLGLSRSRLPKN | 0.682 ± 0.043

Row | Sequence | protein stability index
70 | SLHPSPPPLLPP | 0.642 ± 0.093
71 | SLIPSRSLGFLH | 0.65 ± 0.05
72 | SLLPPRLPPPPF | 0.633 ± 0.016
73 | SLLPSHFASFSP | 0.744 ± 0.03
74 | SLLRLFFLALSY | 0.542 ± 0.071
75 | SLLSFLLRSFFP | 0.722 ± 0.065
76 | SLMCFDLSTFLG | 0.634 ± 0.08
77 | SLMLPIFLPLSR | 0.698 ± 0.04
78 | SLPAPRLGCIPC | 0.64 ± 0.044
79 | SLPFCFIPVAPF | 0.756 ± 0.058
80 | SLPGPRTELPLA | 0.644 ± 0.034
81 | SLPLLSLPLLDF | 0.535 ± 0.02
82 | SLPPHHLLISNA | 0.645 ± 0.028
83 | SLPPPSSHPPPL | 0.7 ± 0.09
84 | SLPQYPSGPTLT | 0.709 ± 0.029
85 | SLQEIWRSKAKV | 0.676 ± 0.054
86 | SLRESTPFCSRP | 0.553 ± 0.18
87 | SLRLSRFLLTAP | 0.5536 ± 0.0031
88 | SLRPPSTFRRSC | 0.71 ± 0.019
89 | SLRPRPSLFPPP | 0.7196 ± 0.00099
90 | SLSPLLVILANL | 0.613 ± 0.05
91 | SLSTSFSSRPPS | 0.704 ± 0.089
92 | SLTAPPNLASPW | 0.705 ± 0.089

Row | Sequence | protein stability index
93 | SLTENRGRKKKK | 0.664 ± 0.0082
94 | SLVLLNQHARER | 0.79 ± 0.036
95 | SLVLRPTGILLI | 0.536 ± 0.019
96 | SLWRLKESYRQS | 0.673 ± 0.039
97 | SLWTDALFLCLT | 0.727 ± 0.19
98 | SMVGCVKTPIEQ | 0.659 ± 0.023
99 | SMVGYPLPVSRN | 0.671 ± 0.039
100 | SMVRYNDFPRPL | 0.689 ± 0.081
101 | SNNWLEKTGAMT | 0.659 ± 0.03
102 | SNPCLPPPSFAS | 0.77 ± 0.019
103 | SNPFPTILSSSS | 0.736 ± 0.037
104 | SNQKLLGQDIDN | 0.659 ± 0.024
105 | SNRSAPWSRFSL | 0.68 ± 0.038
106 | SNTKLIGLIVIG | 0.539 ± 0.043
107 | SNTKPTCSNQQS | 0.688 ± 0.077
108 | SPAQLSYLFPAP | 0.7928 ± 0.0039
109 | SPARLRHSLSLP | 0.723 ± 0.014
110 | SPASPPPPSPLL | 0.695 ± 0.028
111 | SPCRAGRPAGLR | 0.729 ± 0.071
112 | SPCSSDPLYSFA | 0.762 ± 0.069
113 | SPEPSFPPLLLP | 0.715 ± 0.015
114 | SPFPAWPIPASV | 0.612 ± 0.036
115 | SPFPSPVLPPHT | 0.7153 ± 0.006

Row | Sequence | protein stability index
116 | SPGPRLSTRLRQ | 0.701 ± 0.077
117 | SPIRLPATSPSR | 0.639 ± 0.046
118 | SPKDKARMQKQS | 0.602 ± 0.063
119 | SPLFFPSSPPYP | 0.751 ± 0.023
120 | SPLHLFHPPLLH | 0.729 ± 0.023
121 | SPLNLRIPGAPT | 0.675 ± 0.034
122 | SPLPHRLFPFWS | 0.79 ± 0.015
123 | SPLPLLRPPSSH | 0.593 ± 0.047
124 | SPLPSSPRSVPP | 0.744 ± 0.094
125 | SPLPYTPPLRAF | 0.5238 ± 0.0029
126 | SPLSLPSPATFP | 0.688 ± 0.05
127 | SPLSRSRPKSYL | 0.75 ± 0.072
128 | SPLSSSDGSAAI | 0.73 ± 0.022
129 | SPPALPPFLAPL | 0.72 ± 0.1
130 | SPPCPPPHPHPP | 0.597 ± 0.012
131 | SPPCRTYFAECD | 0.713 ± 0.053
132 | SPPGPNQVARPP | 0.6873 ± 0.0057
133 | SPPHPPPRPPLL | 0.733 ± 0.041
134 | SPPLPPPSPTPP | 0.699 ± 0.016
135 | SPPLSLPPPGQS | 0.671 ± 0.073
136 | SPPLVFPTLLPL | 0.7101 ± 0.0029
137 | SPPPHPPLRFLP | 0.667 ± 0.049
138 | SPPPHSTPSSTG | 0.712 ± 0.054

Row | Sequence | protein stability index
139 | SPPPIPPPPPSR | 0.726 ± 0.042
140 | SPPPLPPPLSRP | 0.638 ± 0.067
141 | SPPPLPPPTLPT | 0.791 ± 0.084
142 | SPPPLPPTPPPL | 0.7135 ± 0.0055
143 | SPPPLPSPSPPP | 0.687 ± 0.044
144 | SPPPPLHPALPA | 0.656 ± 0.083
145 | SPPPPPPAPPPP | 0.664 ± 0.042
146 | SPPPPPPPLPPA | 0.731 ± 0.037
147 | SPPPRHLLSPRH | 0.697 ± 0.0077
148 | SPPPSSPPAPPR | 0.717 ± 0.11
149 | SPPRLPTPPPLR | 0.705 ± 0.022
150 | SPPRPPAPPSPT | 0.701 ± 0.014
151 | SPPRPPCLPLTP | 0.713 ± 0.048
152 | SPPSPLALSLRF | 0.707 ± 0.025
153 | SPPSPLYFCSRF | 0.661 ± 0.015
154 | SPPSPPALTPSP | 0.643 ± 0.048
155 | SPRLDPLFRSPP | 0.712 ± 0.017
156 | SPRNIVFQPLSP | 0.622 ± 0.069
157 | SPRRPPQHPTLL | 0.65 ± 0.016
158 | SPRTVCPELHFI | 0.691 ± 0.044
159 | SPRVLSLLLRSM | 0.5811 ± 0.0036
160 | SPRWAPPLPAWP | 0.712 ± 0.014
